The values below come from article PMC12947862, “Oligomerization enables the selective targeting of an intrinsically disordered region by a small molecule” (Science Advances, 2026).

The target in data set [1] is EPI-001. Description: intact MS. The conditions noted are these: t = 24 hours (last time point); parent: est. 21; read off a plot.
The target in data set [2] is EPI-001. Description: 1H NMR chemical shift perturbation of EPI-001. The settings on record: 1 molar equivalent of the corresponding Tau-5* mutant; parent: est. -0.018; read off a plot.
Data set [3] deals with the molecule itself. Description: dynamic light scattering; NR ADs in 20 mM sodium phosphate pH 7.4, 1 mM TCEP, 0.5% DMSO-d6, 5°C; percentage population of monomer and high-order species; 35 μM AR AD; with and without EPI-001.
The target of a further data set is Cys123 (position 123, …). The data set can be described thus: NMR. The conditions noted are these: 5 °C, 20 mM sodium phosphate, no added salt stated, 3 mM TCEP, 0.05% (w/v) NaN3, Reduced free thiol, intrinsically disordered fragments, no ligand. Protein concentrations were 70 μM Nt C123, 300 μM Tau-5* C404 and 150 μM Ct C518.
Data set [4] deals with Cys404 (UniProt position 406, …). The data set can be described thus: NMR. The settings on record: 5 °C, 20 mM sodium phosphate, no added salt stated, 3 mM TCEP, 0.05% (w/v) NaN3, Reduced free thiol, intrinsically disordered fragments, no ligand. Protein concentrations were 70 μM Nt C123, 300 μM Tau-5* C404 and 150 μM Ct C518.
A further data set addresses Cys518. The data set can be described thus: NMR. The settings on record: 5 °C, 20 mM sodium phosphate, no added salt stated, 3 mM TCEP, 0.05% (w/v) NaN3, Reduced free thiol, intrinsically disordered fragments, no ligand. Protein concentrations were 70 μM Nt C123, 300 μM Tau-5* C404 and 150 μM Ct C518.

For the molecule “AR AD fragment transactivation unit 5 (Tau-5*; residues 330 to 448) (from UniProt P10275) A398P”, in the data set with EPI-001 [1], the other: EPI-001 adduct (%) came out at 11%. Further, the response in the data set with EPI-001 [2] is -0.012 p.p.m.
Regarding “AR AD fragment transactivation unit 5 (Tau-5*; residues 330 to 448) (from UniProt P10275) C404Y”, the response in the data set with EPI-001 [2] was -0.021 p.p.m.
With “AR AD fragment transactivation unit 5 (Tau-5*; residues 330 to 448) (from UniProt P10275) G394A; S395A; G407A”, the other: EPI-001 adduct (%) with EPI-001 [1] came out at 26%. Moreover, the response with EPI-001 [2] is -0.042 p.p.m.
For “AR AD fragment transactivation unit 5 (Tau-5*; residues 330 to 448) (from UniProt P10275) G407A”, the response in the data set with EPI-001 [2] is -0.024 p.p.m.
Turning to “AR AD fragment transactivation unit 5 (Tau-5*; residues 330 to 448) (from UniProt P10275) L436P”, in the data set with EPI-001 [2], the response was -0.013 p.p.m.
For the molecule “AR AD fragment transactivation unit 5 (Tau-5*; residues 330 to 448) (from UniProt P10275) W433A; H434A; F437A”, the other: EPI-001 adduct (%) with EPI-001 [1] came to 9.3%. Also, the response in the data set with EPI-001 [2] was -0.008 p.p.m.
As to “AR AD fragment transactivation unit 5 (Tau-5*; residues 330 to 448) (from UniProt P10275) Y393S; W397A; Y406S; H413A”, in the data set with EPI-001 [1], the other: EPI-001 adduct (%) is 2.5%. In addition, the response with EPI-001 [2] was -0.006 p.p.m.
In the case of “AR AD fragment transactivation unit 5 (Tau-5*; residues 330 to 448) (from UniProt P10275) noAro”, the response in the data set with EPI-001 [2] was -0.003 p.p.m.

B1: mineralocorticoid receptor activation domain (MR AD) (domain or fragment, human (from the printed UniProt entry), UniProt P08235 1-602, looked up)
chain: METKGYHSLPEGLDMERRWGQVSQAVERSSLGPTERTDENNYMEIVNVSCVSGAIPNNSTQGSSKEKQELLPCLQQDNNRPGILTSDIKTELESKELSATVAESMGLYMDSVRDADYSYEQQNQQGSMSPAKIYQNVEQLVKFYKGNGHRPSTLSCVNTPLRSFMSDSGSSVNGGVMRAVVKSPIMCHEKSPSVCSPLNMTSSVCSPAGINSVSSTTASFGSFPVHSPITQGTPLTCSPNVENRGSRSHSPAHASNVGSPLSSPLSSMKSSISSPPSHCSVKSPVSSPNNVTLRSSVSSPANINNSRCSVSSPSNTNNRSTLSSPAASTVGSICSPVNNAFSYTASGTSAGSSTLRDVVPSPDTQEKGAQEVPFPKTEEVESAISNGVTGQLNIVQYIKPEPDGAFSSSCLGGNSKINSDSSFSVPIKQESTKHSCSGTSFKGNPTVNPFPFMDGSYFSFMDDKDYYSLSGILGPPVPGFDGNCEGSGFPVGIKQEPDDGSYYPEASIPSSAIVGVNSGGQSFHYRIGAQGTISLSRSARDQSFQHLSSFPPVNTLVESWKSHGDLSSRRSDGYPVLEYIPENVSSSTLRSVSTGSSRPSKI
notes: source: E. coli Rosetta (DE3), purified from inclusion bodies (HisTrap in urea, SEC); not shown: His tag, N-terminal, cleaved
For the molecule B1, in data set [3], the binding result is listed as “binds”.

B2: progesterone receptor activation domain (PR AD) (domain or fragment, human (from the printed UniProt entry), UniProt P06401 1-566, looked up)
chain: MTELKAKGPRAPHVAGGPPSPEVGSPLLCRPAAGPFPGSQTSDTLPEVSAIPISLDGLLFPRPCQGQDPSDEKTQDQQSLSDVEGAYSRAEATRGAGGSSSSPPEKDSGLLDSVLDTLLAPSGPGQSQPSPPACEVTSSWCLFGPELPEDPPAAPATQRVLSPLMSRSGCKVGDSSGTAAAHKVLPRGLSPARQLLLPASESPHWSGAPVKPSPQAAAVEVEEEDGSESEESAGPLLKGKPRALGGAAAGGGAAAVPPGAAAGGVALVPKEDSRFSAPRVALVEQDAPMAPGRSPLATTVMDFIHVPILPLNHALLAARTRQLLEDESYDGGAGAASAFAPPRSSPCASSTPVAVGDFPDCAYPPDAEPKDDAYPLYSDFQPPALKIKEEEEGAEASARSPRSYLVAGANPAAFPDFPLGPPPPLPPRATPSRPGEAAVTAAPASASVSSASSSGSTLECILYKAEGAPPQQGPFAPPPCKAPGASGCLLPRDGLPSTSASAAAAGAAPALYPALGLNGLPQLGYQAAVLKEGLPQVYPPYLNYLRPDSEASQSPQYSFESLPQKI
notes: as for B1
For the molecule B2, the binding result in data set [3] is given as “binds”.

B3: Androgen receptor activation domain fragment Nt C123 (residues 1-151, C129S) (Homo sapiens; C129S) (protein)
chain: MEVQLGLGRVYPRPPSKTYRGAFQNLFQSVREVIQNPGPRHPEAASAAPPGASLLLLQQQQQQQQQQQQQQQQQQQQQETSPRQQQQQQGEDGSPQAHRRGPTGYLVLDEEQQPSQPQSALECHPERGSVPEPGAAVAASKGLPQQLPAPP
For B3, the pKa with Cys123 (position 123, …) was determined as 8.86 ± 0.03.

B4: estrogen receptor alpha activation domain (ERα AD) (domain or fragment, human (from the printed UniProt entry), UniProt P03372 1-184, looked up)
chain: MTMTLHTKASGMALLHQIQGNELEPLNRPQLKIPLERPLGEVYLDSSKPAVYNYPEGAAYEFNAAAAANAQVYGQTGLPYGPGSEAAAFGSNGLGGFPPLNSVSPSPLMLLHPPPQLSPFLQPHGQQVPYYLENEPSGYTVREAGPPAFYRPNSDNRRQGGRERLASTNDKGSMAMESAKETRY
notes: as for B1
With B4, in data set [3], the binding result is reported as “binds”.

B5: Androgen receptor activation domain fragment Tau-5* C404 (residues 330-447, C448 deleted) (Homo sapiens; del448) (protein)
chain: AAGSSGTLELPSTLSLYKSGALDEAAAYQSRDYYNFPLALAGPPPPPPPPHPHARIKLENPLDYGSAWAAAAAQCRYGDLASLHGAGAAGPGSGSPSAAASSSWHTLFTAEEGQLYGP
As to B5, in data set [4], the pKa is given as 8.95 ± 0.05.

B6: glucocorticoid receptor activation domain (GR AD) (domain or fragment, human (from the printed UniProt entry), UniProt P04150 1-420, looked up)
chain: MDSKESLTPGREENPSSVLAQERGDVMDFYKTLRGGATVKVSASSPSLAVASQSDSKQRRLLVDFPKGSVSNAQQPDLSKAVSLSMGLYMGETETKVMGNDLGFPQQGQISLSSGETDLKLLEESIANLNRSTSVPENPKSSASTAVSAAPTEKEFPKTHSDVSSEQQHLKGQTGTNGGNVKLYTTDQSTFDILQDLEFSSGSPGKETNESPWRSDLLIDENCLLSPLAGEDDSFLLEGNSNEDCKPLILPDTKPKIKDNGDLVLSSPSNVTLPQVKTEKEDFIELCTPGVIKQEKLGTVYCQASFPGANIIGNKMSAISVHGVSTSGGQMYHYDMNTASLSQQQDQKPIFNVIPPIPVGSENWNRCQGSGDDNLTSLGTLNFPGRTVFSNGYSSPSMRPDVSSPPSSSSTATTGPPPKL
notes: as for B1
Turning to B6, in data set [3], the binding result is “binds”.

B7: Androgen receptor activation domain fragment Ct C518 (residues 441-558, 4G polyG, C448 deleted) (Homo sapiens; del448;del451-470) (protein)
chain: EGQLYGPGGGGEAGAVAPYGYTRPPQGLAGQESDFTAPDVWYPGGMVSRVPYPSPTCVKSEMGPWMDSYSGPYGDMRLETARDHVLPIDYYFPPQKT
Regarding B7, in the data set with Cys518, the pKa came out at 8.20 ± 0.08.
